Laboratory results from publication PMC6784111.

What was measured:
Assay in all cases: SPR; 40 RU of each antibody immobilized on a CM5 chip; oxMIF (MIF treated with 0.2% Proclin300) injected at 3–25 nM in HBS-EP (HEPES 10 mM, NaCl 150 mM, EDTA 3 mM, 0.005% Tween-20); BIAcore T200; 25 °C; 1:1 Langmuir model
[1] = molecular target: BaxM159 variant 6-EIVLGQ
[2] = molecular target: BaxM159 variant 7-EIVLAE
[3] = molecular target: BaxM159 variant 5-DIQMAE
[4] = molecular target: BaxM159 variant 8-DIQMGE
[5] = molecular target: BaxM159 variant 1-DIQMAQ (parental anti-oxMIF antibody without the heavy chain C-terminal lysine)
[6] = molecular target: BaxM159 variant 4-DIQMGQ
[7] = molecular target: BaxM159 variant 9-EIVLGE
[8] = molecular target: BaxM159 variant 3-EIVLAQ
[9] = molecular target: BaxM159 variant 2-DIQMAQ-K (parental anti-oxMIF antibody with the heavy chain C-terminal lysine)

B1: oxidized macrophage migration inhibitory factor (oxMIF) (natural protein)
chain: MPMFIVNTNVPRASVPDGFLSELTQQLAQATGKPPQYIAVHVVPDQLMAFGGSSEPCALCSLHSIGKIGGAQNRSYSKLLCGLLAERLRISPDRVYINYYDMNAANVGWNNSTFA
modifications: converted to its oxidized form by treatment with 0.2% Proclin300
Question: B1 was tested. Which Kd [1] did it give?
Answer: 2.7 nM

Question: And the koff [1]?
Answer: 0.00064 s⁻¹

Question: And the kon [1]?
Answer: 260000 M⁻¹ s⁻¹

Question: What about the Kd [2] of the same binder?
Answer: 2.4 nM

Question: What about the koff [2] of the same binder?
Answer: 0.00044 s⁻¹

Question: What about the kon [2] of the same binder?
Answer: 180000 M⁻¹ s⁻¹

Question: And the Kd [3]?
Answer: 2.5 nM

Question: What about the koff [3] of the same binder?
Answer: 0.0004 s⁻¹

Question: And the kon [3]?
Answer: 160000 M⁻¹ s⁻¹

Question: What about the Kd [4] of the same binder?
Answer: 4.2 nM

Question: And the koff [4]?
Answer: 0.00054 s⁻¹

Question: And the kon [4]?
Answer: 130000 M⁻¹ s⁻¹

Question: What about the Kd [5] of the same binder?
Answer: 2.6 nM

Question: What about the koff [5] of the same binder?
Answer: 0.00029 s⁻¹

Question: What about the kon [5] of the same binder?
Answer: 110000 M⁻¹ s⁻¹

Question: And the Kd [6]?
Answer: 4.3 nM

Question: And the koff [6]?
Answer: 0.00056 s⁻¹

Question: And the kon [6]?
Answer: 160000 M⁻¹ s⁻¹

Question: And the Kd [7]?
Answer: 1.4 nM

Question: What about the koff [7] of the same binder?
Answer: 0.00044 s⁻¹

Question: What about the kon [7] of the same binder?
Answer: 310000 M⁻¹ s⁻¹

Question: And the Kd [8]?
Answer: 1.5 nM

Question: And the koff [8]?
Answer: 0.00031 s⁻¹

Question: And the kon [8]?
Answer: 200000 M⁻¹ s⁻¹

Question: What about the Kd [9] of the same binder?
Answer: 3 nM

Question: And the koff [9]?
Answer: 0.00038 s⁻¹

Question: And the kon [9]?
Answer: 130000 M⁻¹ s⁻¹
